Results taken from the supplement of paper PMC9233669.
This sample holds only a part of the variants without activity.

How the values were obtained:
[1] = test system: biotinyl-Phe-oxazolone; assay: self-aminoacylation, catalytic enhancement (BFO) (fold over background); higher = more active; k-Seq, kA / k0A0; sequences stand for … in GGGAAUGGAUCCACAUCUACGAAUUC…UUCACUGCAGACUUGACGAAGCUG
Method in brief: (§1)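 Catalytic enhancement equals the median kA over the uncatalyzed rate, the latter read from the low-activity peak of a bimodal Gaussian fit. Values of kA came from fitting each sequence's fraction reacted to a pseudo-first-order model, with 1000 bootstraps. Reacted RNA was captured with streptavidin and quantified by triplicate qPCR and Illumina sequencing after 90 minutes at room temperature with 2–1250 μM biotinyl-aminoacyl-oxazolone and 0.43 μM mutagenized RNA pools bearing a 21-nt variable region.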

[2] = test system: biotinyl-Ile-oxazolone; assay: self-aminoacylation, catalytic enhancement (BIO) (fold over background); higher = more active; k-Seq, kA / k0A0; sequences stand for … in GGGAAUGGAUCCACAUCUACGAAUUC…UUCACUGCAGACUUGACGAAGCUG
Method in brief: as §1

[3] = test system: biotinyl-Met-oxazolone; assay: self-aminoacylation, catalytic enhancement (BMO) (fold over background); higher = more active; k-Seq, kA / k0A0; sequences stand for … in GGGAAUGGAUCCACAUCUACGAAUUC…UUCACUGCAGACUUGACGAAGCUG
Method in brief: as §1

[4] = test system: biotinyl-Val-oxazolone; assay: self-aminoacylation, catalytic enhancement (BVO) (fold over background); higher = more active; k-Seq, kA / k0A0; sequences stand for … in GGGAAUGGAUCCACAUCUACGAAUUC…UUCACUGCAGACUUGACGAAGCUG
Method in brief: as §1

[5] = test system: biotinyl-Leu-oxazolone; assay: self-aminoacylation, catalytic enhancement (BLO) (fold over background); higher = more active; k-Seq, kA / k0A0; sequences stand for … in GGGAAUGGAUCCACAUCUACGAAUUC…UUCACUGCAGACUUGACGAAGCUG
Method in brief: as §1

[6] = test system: biotinyl-Trp-oxazolone; assay: self-aminoacylation, catalytic enhancement (BWO) (fold over background); higher = more active; k-Seq, kA / k0A0; sequences stand for … in GGGAAUGGAUCCACAUCUACGAAUUC…UUCACUGCAGACUUGACGAAGCUG
Method in brief: as §1

Sequence: CCACACUUAAAGCUAUCGGUC [Fam1B.1 aminoacylation ribozyme variant]
- self-aminoacylation [1]: 0.762
- self-aminoacylation [2]: 1.03
- self-aminoacylation [3]: 0.887
- self-aminoacylation [4]: 1.1
- self-aminoacylation [5]: 0.915
- self-aminoacylation [6]: 0.89

Sequence: AUUCACGUAGGUCAUCGGUUG [Fam2.2 aminoacylation ribozyme variant]
- self-aminoacylation [1]: 4.98
- self-aminoacylation [2]: 1.2
- self-aminoacylation [3]: 1.23
- self-aminoacylation [4]: 1.24
- self-aminoacylation [5]: 1.35
- self-aminoacylation [6]: 0.72

Sequence: AUGACCCUGGUCAUGGAGUGA [Fam2.1 aminoacylation ribozyme variant]
- self-aminoacylation [1]: 26.2
- self-aminoacylation [2]: 2.56
- self-aminoacylation [3]: 4.69
- self-aminoacylation [4]: 2.73
- self-aminoacylation [5]: 4.81
- self-aminoacylation [6]: 4.08

Sequence: CUACUUCAAUCAAUCCGUCUG [Fam1A.1 aminoacylation ribozyme variant]
- self-aminoacylation [1]: 0.657
- self-aminoacylation [2]: 0.758
- self-aminoacylation [3]: 0.664
- self-aminoacylation [4]: 0.672
- self-aminoacylation [5]: 0.694
- self-aminoacylation [6]: 0.695

Sequence: AUUGCCCAGGUCAUCGAGUGA [Fam2.1 aminoacylation ribozyme variant]
- self-aminoacylation [1]: 18.4
- self-aminoacylation [2]: 2.66
- self-aminoacylation [3]: 5.51
- self-aminoacylation [4]: 3.16
- self-aminoacylation [5]: 4.81
- self-aminoacylation [6]: 5.7

Sequence: CUACUUCAAUCCAUCGGUCUG [Fam1A.1 aminoacylation ribozyme variant]
- self-aminoacylation [1]: 0.866
- self-aminoacylation [2]: 0.857
- self-aminoacylation [3]: 0.738
- self-aminoacylation [4]: 0.821
- self-aminoacylation [5]: 0.737
- self-aminoacylation [6]: 0.728

Sequence: AUGCACCUAGGUCAUCUGGUG [Fam2.2 aminoacylation ribozyme variant]
- self-aminoacylation [1]: 10.8
- self-aminoacylation [2]: 1.67
- self-aminoacylation [3]: 1.95
- self-aminoacylation [4]: 1.69
- self-aminoacylation [5]: 2.34
- self-aminoacylation [6]: 2.17

Sequence: CCACACCUCACGCAAUCGGUC [Fam1B.1 aminoacylation ribozyme variant]
- self-aminoacylation [1]: 1.34
- self-aminoacylation [2]: 1.84
- self-aminoacylation [3]: 1.27
- self-aminoacylation [4]: 1.99
- self-aminoacylation [5]: 1.58
- self-aminoacylation [6]: 2.13

Sequence: CCACACUUCGAGAAAUCGGUC [Fam1B.1 aminoacylation ribozyme variant]
- self-aminoacylation [1]: 0.511
- self-aminoacylation [2]: 0.951
- self-aminoacylation [3]: 1.18
- self-aminoacylation [4]: 0.976
- self-aminoacylation [5]: 1.12
- self-aminoacylation [6]: 0.812

Sequence: AUUCAGCUAGGUCAGCGGGUG [Fam2.2 aminoacylation ribozyme variant]
- self-aminoacylation [1]: 21.8
- self-aminoacylation [2]: 2.71
- self-aminoacylation [3]: 3.79
- self-aminoacylation [4]: 2.53
- self-aminoacylation [5]: 4.01
- self-aminoacylation [6]: 4.28

Sequence: AUUCACCUAGAUCUUCGGGUG [Fam2.2 aminoacylation ribozyme variant]
- self-aminoacylation [1]: 12.3
- self-aminoacylation [2]: 2.18
- self-aminoacylation [3]: 3.09
- self-aminoacylation [4]: 2.54
- self-aminoacylation [5]: 3.75
- self-aminoacylation [6]: 2.8

Sequence: AACUUUGCCAAUAGUCGCAAG [Fam3.1 aminoacylation ribozyme variant]
- self-aminoacylation [1]: 14.7
- self-aminoacylation [2]: 2.62
- self-aminoacylation [3]: 2.79
- self-aminoacylation [4]: 2.64
- self-aminoacylation [5]: 2.81
- self-aminoacylation [6]: 3.85

Sequence: AAUCACCUAGGUCAUCGGAUG [Fam2.2 aminoacylation ribozyme variant]
- self-aminoacylation [1]: 0.476
- self-aminoacylation [2]: 1.06
- self-aminoacylation [3]: 0.909
- self-aminoacylation [4]: 1.19
- self-aminoacylation [5]: 0.798
- self-aminoacylation [6]: 1.08

Sequence: CCACACCCCAAGCAAUCGGUC [Fam1B.1 aminoacylation ribozyme variant]
- self-aminoacylation [1]: 1.04
- self-aminoacylation [2]: 1.6
- self-aminoacylation [3]: 0.627
- self-aminoacylation [4]: 1.37
- self-aminoacylation [5]: 1.04
- self-aminoacylation [6]: 0.888

Sequence: AAGUUUGCUUAUAGUCGCACG [Fam3.1 aminoacylation ribozyme variant]
- self-aminoacylation [1]: 1.27
- self-aminoacylation [2]: 0.815
- self-aminoacylation [3]: 0.961
- self-aminoacylation [4]: 0.855
- self-aminoacylation [5]: 0.932
- self-aminoacylation [6]: 0.924

Sequence: AUUACCCUGGUCAUCGAGUGU [Fam2.1 aminoacylation ribozyme variant]
- self-aminoacylation [1]: 785
- self-aminoacylation [2]: 31.7
- self-aminoacylation [3]: 108
- self-aminoacylation [4]: 37.4
- self-aminoacylation [5]: 105
- self-aminoacylation [6]: 104

Sequence: AUUAACCUAGGUCUUCGGGUG [Fam2.2 aminoacylation ribozyme variant]
- self-aminoacylation [1]: 17.9
- self-aminoacylation [2]: 2.64
- self-aminoacylation [3]: 2.98
- self-aminoacylation [4]: 2.73
- self-aminoacylation [5]: 3.58
- self-aminoacylation [6]: 2.95

Sequence: AUUCACCUAAGUUAUCGGGUG [Fam2.2 aminoacylation ribozyme variant]
- self-aminoacylation [1]: 51
- self-aminoacylation [2]: 3.83
- self-aminoacylation [3]: 6.15
- self-aminoacylation [4]: 3.96
- self-aminoacylation [5]: 8.59
- self-aminoacylation [6]: 5.61

Sequence: AUUCACCUAGGUCAUCGUUUG [Fam2.2 aminoacylation ribozyme variant]
- self-aminoacylation [1]: 0.512
- self-aminoacylation [2]: 0.592
- self-aminoacylation [3]: 0.542
- self-aminoacylation [4]: 0.771
- self-aminoacylation [5]: 0.556
- self-aminoacylation [6]: 0.31

Sequence: CUACUUUAAACAAUCGAUCUG [Fam1A.1 aminoacylation ribozyme variant]
- self-aminoacylation [1]: 0.815
- self-aminoacylation [2]: 0.768
- self-aminoacylation [3]: 0.675
- self-aminoacylation [4]: 0.741
- self-aminoacylation [5]: 0.683
- self-aminoacylation [6]: 0.852

Sequence: CUACUUCAAACUAUCAGUCUG [Fam1A.1 aminoacylation ribozyme variant]
- self-aminoacylation [1]: 1.25
- self-aminoacylation [2]: 1.06
- self-aminoacylation [3]: 0.975
- self-aminoacylation [4]: 1.05
- self-aminoacylation [5]: 0.801
- self-aminoacylation [6]: 0.813
